In assay [1] the target is T1, PD-1蛋白 (human, UniProt Q15116 25-167, limits assumed).
T1 construct: Recombinant PD-1 protein used in ELISA, SPR and BLI; also called PD-1[B]; (biotinylated)
As to the kind of experiment: binding ELISA on coated PD-1 protein. Background: ELISA stands for enzyme-linked immunosorbent assay.

Assay [2] has as its target T1, PD-1蛋白. Kind of assay: SPR (Biacore T200), antibody captured by anti-human Fc, PD-1 injected. In general terms: In SPR one partner is held on a chip, and binding of the other changes the refractive index at the surface.
For assay [3], the target named is T1, PD-1蛋白. Kind of assay: competition ELISA: PD-L1 coated, biotinylated PD-1 0.5 ug/mL, antibody titrated.

Substitutions are numbered along the chain they refer to. Names and notes keep the numbering of the source.

T1 sequence (Q15116 25-167 limits assumed): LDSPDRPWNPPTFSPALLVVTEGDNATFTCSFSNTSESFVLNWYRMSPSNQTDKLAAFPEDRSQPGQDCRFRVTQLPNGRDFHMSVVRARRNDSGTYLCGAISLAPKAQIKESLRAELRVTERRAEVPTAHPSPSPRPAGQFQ

B1: hu19D4-25 (antibody, V domains shown)
VH: EVQLQESGPGLVKPSETLSLTCTVSGFSLTSYAISWIRQPPGKGLEWIGVIWTGGGTNYNSALKSRVTISKDTSKNQVSLKLSSVTAADTAVYYCARDHYGTSPFVYWGQGTLVTVSS
VL: DIVLTQTPLSLSVTPGQPASISCRASESVDNYGISFMNWFLQKPGQPPQLLIYAASNQGSGVPDRFSGSGSGTDFTLKISRVEAEDVGVYFCQQSKEVPWTFGGGTKVEIK
notes: also called 人源化抗体hu19D4-25
The EC50 is the concentration that produces a half-maximal response. Low values mean greater potency, high ones weaker potency. As a reminder, the Kd is a measure of binding affinity in units of concentration. High values mean weaker binding, low ones tighter binding. One may read the koff as the rate constant with which the complex falls apart. The low end stands for a long-lived complex, the high end for a short-lived complex. As usually defined, the kon is the second-order rate constant of association. The low end stands for slower complex formation, the high end for faster complex formation. For the molecule B1, in assay [1], the EC50 was determined as 0.192 nM. Also, in assay [2], binding was put at a Kd of 89.5 nM, the koff turned out to be 0.0105 s⁻¹ and the kon came out at 118000 M⁻¹ s⁻¹.

B2: WT-Agly-YTE (antibody, V domains shown)
VH: B1 VH
VL: B1 VL
notes: also called WT-Ag-YTE; WT-AGY-YTE
The term IC50 denotes the concentration at which inhibition is half-maximal. A high value points to a need for much substance. As to B2, in assay [3], the IC50 is 0.411 µg/mL.

B3: 1C2-3C11-W52F-Agly-YTE (antibody, V domains shown)
VH: B1 VH with W52F, D98E
VL: B1 VL with K96L
notes: 19D4-25-1C2-3C11 with W52F and an Fc with YTE (M252Y, S254T, T256E) and N297A; The label itself is not defined in the text
The molecule B3 came in with an IC50 in assay [3] of 0.495 µg/mL.

B4: 3C11-Agly-YTE (antibody, V domains shown)
VH: B1 VH with D98E
VL: B1 VL
notes: also called 19D4-25-3C11与YTE突变、N297突变的Fc融合后得到的抗原结合蛋白
Take B4: the IC50 in assay [3] is 0.543 µg/mL.

B5: 1C2-Agly (antibody, V domains shown)
VH: B1 VH
VL: B1 VL with K96L
notes: also called 19D4-25-1C2与N297突变的Fc融合后得到的抗原结合蛋白
The molecule B5 came in with an IC50 in assay [3] of 0.375 µg/mL.

B6: 1C2-3C11-Agly-YTE (antibody, V domains shown)
VH: B1 VH with D98E
VL: B1 VL with K96L
notes: also called 19D4-25-1C2-3C11与YTE突变、N297突变的Fc融合后得到的抗原结合蛋白
With B6, the IC50 in assay [3] came out at 0.369 µg/mL.

B7: 1C2-Agly-YTE (antibody, V domains shown)
VH: B1 VH
VL: B1 VL with K96L
notes: also called 19D4-25-1C2与YTE突变、N297突变的Fc融合后得到的抗原结合蛋白
Turning to B7, in assay [3], the IC50 came to 0.492 µg/mL. This IC50 and that of the molecule before are within 1.5-fold of each other.
